In the assay the target is HER2 (human epidermal growth factor receptor 2) (human) (UniProt P04626). Description: cell-based or functional assay.

“CasMab250 (H/L)-based CAR with medium spacer (IgG4 hinge & CH3 domain) and CD28-CD3ζ1XX intracellular signaling domains”: the maximal cytolysis of SKOV3 tumor cells (xCELLigence, E:T 1:1) came to 90%.

These data come from US20250222029A1.
